{"source": "paper PMC10148881", "about": "“Recognition of an Ala-rich C-degron by the E3 ligase Pirh2” (Nature Communications, 2023)", "binders": {"B1": {"name": "Ala6/C-degron peptide with the threonine mutation of Ala-2 (peptide)", "chain": "YKTSAAAATA"}, "B2": {"name": "Ala6/C-degron peptide (sequence: YKTSAAAAAA) (peptide)", "peptide": "YKTSAAAAAA", "notes": "decapeptide with a C-terminal six-Ala degron and a free C-terminus; also called decapeptide containing the Ala6/C-degron; six-Ala peptide; source: synthetic peptide"}}, "experiment_in_all_cases": "ITC; peptides (0.6–1.0 mM) titrated into the cell with 180–220 μM protein at 16 °C; 20 mM Tris-HCl pH 7.5, 150 mM NaCl, 10 μM Zn2+; one-site binding model", "conditions_in_all_cases": "both partners purified", "key": {"[1]": {"biological_target": "T1, Pirh2 NTD + RING (residues 1–189) (human, UniProt Q96PM5 1-189)", "T1 construct": "human Pirh2 (Rchy1), NTD + RING, residues 1–189; source: E. coli BL21 (DE3), purified (Ni-NTA, TEV cleavage, SEC); not shown: 8xHis-SUMO, N-terminal, cleaved", "T1 sequence (looked up)": "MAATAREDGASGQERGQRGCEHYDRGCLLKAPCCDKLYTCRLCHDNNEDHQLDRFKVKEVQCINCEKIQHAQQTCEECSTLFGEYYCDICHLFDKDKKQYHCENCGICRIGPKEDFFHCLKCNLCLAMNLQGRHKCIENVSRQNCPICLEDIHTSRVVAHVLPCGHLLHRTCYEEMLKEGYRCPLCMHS"}, "[2]": {"biological_target": "T2, Pirh2 NTD (residues 1–137) (human, UniProt Q96PM5 1-137)", "T2 construct": "human Pirh2 (Rchy1), NTD, residues 1–137; also called CHY zinc finger; source: E. coli BL21 (DE3), purified (Ni-NTA, TEV cleavage, SEC); not shown: 8xHis-SUMO, N-terminal, cleaved", "T2 sequence (looked up)": "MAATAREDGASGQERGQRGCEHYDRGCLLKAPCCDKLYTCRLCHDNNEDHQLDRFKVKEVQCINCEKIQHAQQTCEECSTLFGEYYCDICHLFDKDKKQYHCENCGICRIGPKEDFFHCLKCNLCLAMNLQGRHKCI"}, "[3]": {"biological_target": "T3, full-length Pirh2 (residues 1–261) (human, UniProt Q96PM5 1-261)", "T3 construct": "human Pirh2 (Rchy1, RING finger and CHY zinc finger domain-containing protein 1), residues 1–261; Cloned into pET28-MKH8SUMO; the tag was cut off with TEV protease; also called Rchy1; p53-induced RING-H2 protein; source: E. coli BL21 (DE3), purified (Ni-NTA, TEV cleavage, SEC); not shown: 8xHis-SUMO, N-terminal, cleaved", "T3 sequence (looked up)": "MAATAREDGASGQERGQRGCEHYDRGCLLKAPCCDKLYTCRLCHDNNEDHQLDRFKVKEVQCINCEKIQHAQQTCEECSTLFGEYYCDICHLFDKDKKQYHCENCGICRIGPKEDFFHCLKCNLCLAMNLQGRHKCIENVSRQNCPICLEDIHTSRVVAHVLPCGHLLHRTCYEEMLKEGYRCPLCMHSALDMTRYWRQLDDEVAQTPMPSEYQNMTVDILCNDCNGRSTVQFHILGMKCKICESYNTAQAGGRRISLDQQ"}}}
{"binder": "B1", "values": [{"measurement": "Kd", "setting": "[1]", "value": 15, "unit": "µM"}]}
{"binder": "B2", "values": [{"measurement": "Kd", "setting": "[2]", "value": 5.5, "unit": "µM"}, {"measurement": "Kd", "setting": "[1]", "value": 0.5, "unit": "µM"}, {"measurement": "Kd", "setting": "[3]", "value": 0.9, "unit": "µM"}]}
